In article PMC5119886, “POWERDRESS interacts with HISTONE DEACETYLASE 9 to promote aging in Arabidopsis” (eLife, 2016):

Target: T1, HDA9-3xFLAG (HISTONE DEACETYLASE 9, pHDA9::HDA9-3xFLAG/hda9) (Arabidopsis thaliana, UniProt Q8H0W2 1-426)
T1 construct: Histone deacetylase 9 (HDA9), RPD3-type deacetylase, Arabidopsis thaliana; genomic DNA with its 1 kb promoter cloned into pEarleyGate302; Primers are in Supplementary file 1; also called HDA9-FLAG; source: Arabidopsis transgenic plants (native HDA9 promoter, hda9 background): in leaf extract for IP-MS; purified on anti-FLAG M2 beads with 3xFLAG peptide elution for the pull-down
T1 sequence (looked up): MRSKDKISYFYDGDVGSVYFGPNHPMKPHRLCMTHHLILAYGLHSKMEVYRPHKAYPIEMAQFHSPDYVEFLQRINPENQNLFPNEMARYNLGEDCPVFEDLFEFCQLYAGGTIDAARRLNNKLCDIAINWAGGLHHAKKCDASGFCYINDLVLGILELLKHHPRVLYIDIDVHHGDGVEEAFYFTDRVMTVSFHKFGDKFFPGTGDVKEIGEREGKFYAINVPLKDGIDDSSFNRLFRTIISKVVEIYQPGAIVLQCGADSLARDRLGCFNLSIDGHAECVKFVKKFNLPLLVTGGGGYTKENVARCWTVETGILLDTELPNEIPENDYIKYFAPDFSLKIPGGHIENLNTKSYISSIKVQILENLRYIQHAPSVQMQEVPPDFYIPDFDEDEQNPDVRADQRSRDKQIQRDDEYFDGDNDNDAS
Experiment: pull-down; purified HDA9-FLAG incubated with GST-tagged protein in 20 mM Tris-HCl 8.0, 200 mM NaCl, 1 mM EDTA, 0.5% Nonidet P-40 for one hour, then Glutathione Sepharose 4B beads for one hour at 4°C; detected with anti-GST and anti-FLAG; two technical replicates
Details: both partners purified

B1: GST-WRKY53 (GST tagged full-length WRKY53) (natural protein, Arabidopsis thaliana, UniProt Q9SUP6 1-324, looked up)
chain: MEGRDMLSWEQKTLLSELINGFDAAKKLQARLREAPSPSSSFSSPATAVAETNEILVKQIVSSYERSLLLLNWSSSPSVQLIPTPVTVVPVANPGSVPESPASINGSPRSEEFADGGGSSESHHRQDYIFNSKKRKMLPKWSEKVRISPERGLEGPQDDVFSWRKYGQKDILGAKFPRSYYRCTHRSTQNCWATKQVQRSDGDATVFEVTYRGTHTCSQAITRTPPLASPEKRQDTRVKPAITQKPKDILESLKSNLTVRTDGLDDGKDVFSFPDTPPFYNYGTINGEFGHVESSPIFDVVDWFNPTVEIDTTFPAFLHESIYY
notes: WRKY53 transcription factor, Arabidopsis thaliana; full-length cDNA cloned into pGOOD (pGEX-6P modified by adding a 6XHIS tag at the C terminus); Primers are in Supplementary file 1; source: E. coli, induced with 200 uM IPTG for three hours at 37°C, purified
  binding result: binds
